Experimental data published in patent US11015206B2, “Compositions and methods comprising sequences having hydroxyphenylpyruvate dioxygenase (HPPD) activity” (PIONEER HI-BRED INTERNATIONAL, INC., priority 2014, dated 2021).

How the values were obtained:
Type in all cases: biochemical, Z. mays
[1] = tested on: 4-hydroxyphenylpyruvate dioxygenase (HPPD); assay: Insensitivity parameter (ON × OFF) and trait fitness (ON × OFF × kcat/KM or × kcat); design: key to ON × OFF / Insensitivity, mesotrione, ON × OFF / Insensitivity, tembotrione, ON × OFF / Insensitivity, topramezone, ON × OFF / Insensitivity, sulcotrione, ON × OFF / Insensitivity, isoxaflutole (DKN), ON × OFF: insensitivity = ON rate ratio × OFF rate ratio (surrogate for KD)
Text: Because substrate and inhibitors bind in the same site, the high concentration of substrate present may competitively trap the inhibitor and prevent it from binding again. To be sure that improvement in ON rates is being taken into account, the ON and OFF rate ratios were multiplied, creating an “insensitivity parameter” that is a surrogate for KD. KD is expressed as kOFF/kON, but because the ON rate ratio is an inverse parameter (the higher the value of ON rate ratio, the lower the value of the represented phenomenon, kON), it is appropriate to multiply ON and OFF rate ratios rather then divide OFF rate ratio by ON rate ratio. Another parameter, which quantifies the combined catalytic and insensitivity properties of the enzyme is kcat/KM×ON rate ratio×OFF rate ratio, and is termed “trait fitness”. This parameter is intended to have a meaning similar to the commonly used expression kcat/KM×Ki.

[2] = tested on: 4-hydroxyphenylpyruvate dioxygenase (HPPD); assay: ON rate ratio: HPPD reaction rate with vs without inhibitor in the 70 to 90 second interval; details: Table 7; tembotrione; combinatorial variants
Text: (§1) Higher KD (reduced affinity or increased insensitivity) can be attained with a numerically smaller ON rate, a larger OFF rate or both. To detect and quantify changes in kON and kOFF, observations of the time course of an HPPD reaction as inhibitor binds to and inactivates the enzyme (kON), or is released from a pre-formed enzyme-inhibitor complex (kOFF) were used, as shown in FIGS. 13A and 13B. In practice, a quantitative indicator of kON was obtained by monitoring the time courses of HPPD reactions containing 60 or 120 nM HPPD and 100 μM HPP in the presence and absence of 4 μM inhibitor (e.g., mesotrione or tembotrione). The ratio of the reaction rate with inhibitor to that without inhibitor during the 70 to 90 second interval of the reaction was termed the “ON rate ratio”. The smaller the actual kON, the more slowly the HPPD reaction decelerates and the higher the value is for the ON rate ratio. FIGS. 13A and 13B illustrate the contrasting reaction velocity in the 70-90 sec interval for maize wild-type HPPD (FIG. 13A) versus an improved variant (SEQ ID NO:78) (FIG. 13B).

[3] = tested on: 4-hydroxyphenylpyruvate dioxygenase (HPPD); assay: Estimate of kcat from initial rate at saturating hydroxyphenylpyruvate without inhibitor (ON rate ratio assay)
Text: as §1
Thirty nine variants were desensitized to tembotrione compared with the backbone enzyme, Round 7, variant 9070 (SEQ ID NO:2) and all were desensitized compared with maize wild type HPPD (SEQ ID NO:1). Because the assay for ON rate ratio includes an initial rate measurement at saturating hydroxyphenylpyruvate without inhibitor and with known enzyme concentration, an estimate of kcat was available. Taking into account kcat and insensitivity parameters, 30 variants were selected for measurement of substrate saturation kinetic parameters and re-evaluation of insensitivity to tembotrione. The kinetic and insensitivity parameters were determined as described in Example 1, and were multiplied to generate the “trait fitness” parameter. The complete list of variants, i.e., of selected single substitutions in SEQ ID NO:2, analyzed with multiple inhibitors and the results obtained are shown in Table 6. The same set of 30 variants were evaluated for insensitivity to mesotrione, sulcotrione, isoxaflutole (its active diketonitrile form, abbreviated DKN in Table 6) and topramezone.

[4] = tested on: 4-hydroxyphenylpyruvate dioxygenase (HPPD); assay: OFF rate ratio: release of inhibitor from pre-formed enzyme-inhibitor complex; details: Table 7; tembotrione; combinatorial variants
Method: A quantitative indicator of kOFF can be obtained by observing the time course of an HPPD reaction as inhibitor is released from a pre-formed enzyme-inhibitor complex. HPPD and inhibitor were incubated together at concentrations of 7.2 and 8 μM, respectively. Incubations with the same concentrations of enzyme but no inhibitor were done in parallel. After 1 hr at room temperature, 5 to 10 μl of the enzyme-inhibitor complex was dispensed into the wells of the assay plate. Reactions were started with the addition of 290 to 295 μl of 25 mM Hepes, pH 7, 2 mM ascorbate, 10 μM FeSO4, 100 μM HPP and 50 nM HGD. The reactions were monitored at 320 nm for 12 min. Reaction velocity accelerates as inhibitor is released from the enzyme until a steady state is reached, during which the reaction velocity is constant. The ratio of the steady state rate in mixtures containing herbicidal inhibitor to the initial velocity of mixtures lacking inhibitor is termed the “OFF rate ratio”.
Another parameter to record is the time span required for the reactions with inhibitor to reach the steady state. FIGS. 13C and 13D illustrate the contrasting time span in which maize wild-type HPPD (FIG. 13C) and an improved variant (SEQ ID NO:78) (FIG. 13D) dissociated from mesotrione, as indicated by the accelerating reaction rates. The plateau of absorbance is due to exhaustion of the substrate. With the improved variant, not only was the steady state attained in a shorter time span (80 sec for the variant versus 280 sec for wild type), the velocity attained was twice as high as with wild type, though the enzymes were present at the same concentration (240 nM). This is because a larger fraction of the variant enzyme is free of inhibitor compared to the wild-type enzyme, and the kcat for both is nearly the same, about 220 min^−1.

[5] = Table 7, tembotrione, combinatorial variants
[6] = Table 7, combinatorial variants

Molecule | ON × OFF ([1]; Megatable 3, shuffled variants) | ON × OFF × kcat ([1]; Megatable 3, shuffled variants) | ON × OFF [1, 5] | ON × OFF × kcat [1, 5] | ON rate ratio [2] | kcat ([3]; Megatable 3, shuffled variants) | kcat [3, 6] | OFF rate ratio [4]
P056028-B-01 (protein, Zea mays variant form created by artificial means.) MGPTPTATAAGAAVAAASAAEQAAFRLVGHRNFVRFNPRSDRFQTLAFHHVELWCADAASAAGRFSFALGVPLAARSDLSTGNSAHASLLLRSGSLSLLFTAPYAHGADAATAALPSFSAAAARRFAADHGLAVRAVALRVADAEDAFRASVAAGARPAFGPVDLGRGFRLAEVELYGDVVLRYVSYPDGAAGEPFLPGFEGVASPGAADYGLSRFDHIVGNVPELAPAAAYMAGFTGFHEFAEFTTEDVGTTESGLNSMALANNSENVLLPLNEPVHGTKRRSQIQTFLDHHGGPGVQHIALASDDVLRTLREMRARSAMGGFEFLPPPLSDYYDGVRKCAGDVLTEAQINECQELGVMVDRDDEGVLLQIFTKPVGDRPTFFLELIQRIGCMEKDEKGQEYQKGGCGGFGKGNFGQLFKSIEDYEKSLEAKQAAAAATAQGS | 0.230 | 4.28 | 0.230 | 4.28 | 0.745 | 0.31 s⁻¹ | 0.31 s⁻¹ | 0.309
P056028-B-05 (protein, Zea mays variant form created by artificial means.) MGPTPTATAAGAAVAAASAAEQAAFRLVGHRNFVRFNPRSDRFQTLAFHHVELWCADAASAAGRFSFALGVPLAARSDLSTGNSAHASLLLRSGSLSLLFTAPYAHGADAATAALPSFSAAAARRFAADHGLAVRAVALRVADAEDAFRASVAAGARPAFGPVDLGRGFRLAEVELYGDVVLRYVSYPDGAAGEPFLPGFEGVASPGAADYGLSRFDHIVGNVPELAPAAAYMAGFTGFHEFAEFTTEDVGTTESGLNSMALANNSENVLLPLNEPVHGTRRRSQIQTFLDHHGGPGVQHIALASDDVLRTLREMRARSAMGGFEFLPPPLSDYYDGVRKCAGDVLTEAQINECQELGVMVDRDDEGVLLQIFTKPVGDRPTFFLELIQRIGCMEKDEKGQEYQKGGCGGFGKGNFGQLFKSIEDYEKSLEAKQAAAAATAQGS | 0.211 | 3.85 | 0.211 | 3.85 | 0.734 | 0.305 s⁻¹ | 0.305 s⁻¹ | 0.287
P056028-B-04 (protein, Zea mays variant form created by artificial means.) MGPTPTATAAGAAVAAASAAEQAAFRLVGHRNFVRFNPRSDRFQTLAFHHVELWCADAASAAGRFSFALGVPLAARSDLSTGNSAHASLLLRSGSLSLLFTAPYAHGADAATAALPSFSAAAARRFAADHGLAVRAVALRVADAEDAFRASVAAGARPAFGPVDLGRGFRLAEVELYGDVVMRYVSYPDGAAGEPFLPGFEGVASSGAADYGLNRFDHIVGNVPELAPAAAYMAGFTGFHEFAEFTTEDVGTTESGLNSMALANNSENVLLPLNEPVHGTKRRSQIQTFLDHHGGPGVQHIALASDDVLRTLREMRARSAMGGFEFLPPPLSDYYDGVRKCAGDVLTEAQINECQELGVMVDRDDEGVLLQIFTKPVGDRPTFFLEIIQRIGCMEKDEKGQEYQKGGCGGFGKGNFGQLFKSIEDYEKSLEAKQAAAAATAQGS | 0.196 | 3.24 | 0.196 | 3.24 | 0.718 | 0.275 s⁻¹ | 0.275 s⁻¹ | 0.273
P056028-B-10 (protein, Zea mays variant form created by artificial means.) MGPTPTATAAGAAVAAASAAEQAAFRLVGHRNFVRFNPRSDRFQTLAFHHVELWCADAASAAGRFSFALGVPLAARSDLSTGNSAHASLLLRSGSLSLLFTAPYAHGADAATAALPSFSAAAARRFAADHGLAVRAVALRVADAEDAFRASVAAGARPAFGPVDLGRGFRLAEVELYGDVVMRYVSYPDGAAGEPFLPGFEGVASPGAADYGLSRFDHIVGNVPELAPAAAYMAGFTGFHEFAEFTTEDVGTTESGLNSMALANNSENVLLPLNEPVHGTKRRSQIQTFLDHHGGPGVQHIALASDDVLRTLREMRARSAMGGFEFLPPPLSDYYDGVRRCAGDVLTEAQINECQELGVMVDRDDEGVLLQIFTKPVGDRPTFFVEIIQRIGCMEKDEKGQEYQKGGCGGFGKGNFGQLFKSIEDYEKSLEAKQAAAAATAQGS | 0.230 | 4.12 | 0.230 | 4.12 | 0.703 | 0.298 s⁻¹ | 0.298 s⁻¹ | 0.327
P056028-B-03 (protein, Zea mays variant form created by artificial means.) MGPTPTATAAGAAVAAASAAEQAAFRLVGHRNFVRFNPRSDRFQTLAFHHVELWCADAASAAGRFSFALGVPLAARSDLSTGNSAHASLLLRSGSLSLLFTAPYAHGADAATAALPSFSAAAARRFAADHGLAVRAVALRVADAEDAFRASVAAGARPAFGPVDLGRGFRLAEVELYGDVVLRYVSYPDGAAGEPFLPGFEGVASPGAADYGLNRFDHIVGNVPELAPAAAYMAGFTGFHEFAEFTTEDVGTTESGLNSMALANNSENVLLPLNEPVHGTKRRSQIQTFLDHHGGPGVQHIALASDDVLRTLREMRARSAMGGFEFLPPPLSDYYDGVRRCAGDVLTEAQINECQRLGVMVDRDDEGVLLQIFTKPVGDRPTFFLEIIQRIGCMEKDEKGQEYQKGGCGGFGKGNFGQLFKSIEDYEKSLEAKQAAAAATAQGS | 0.259 | 4.63 | 0.259 | 4.63 | 0.732 | 0.298 s⁻¹ | 0.298 s⁻¹ | 0.353
P056028-B-06 (protein, Zea mays variant form created by artificial means.) MGPTPTATAAGAAVAAASAAEQAAFRLVGHRNFVRFNPRSDRFQTLAFHHVELWCADAASAAGRFSFALGVPLAARSDLSTGNSAHASLLLRSGSLSLLFTAPYAHGADAATAALPSFSAAAARRFAADHGLAVRAVALRVADAEDAFRASVAAGARPAFGPVDLGRGFRLAEVELYGDVVLRYVSYPDGAAGEPFLPGFEGVASPGAADYGLSRFDHIVGNVPELAPAAAYMAGFTGFHEFAEFTTEDVGTTESGLNSMALANNSENVLLPLNEPVHGTKRRSQIQTFLDHHGGPGVQHIALASDDVLRTLREMRARSAMGGFEFLPPPLSDYYDGVRRCAGDVLTEAQINECQKLGVMVDRDDEGVLLQIFTKPVGDRPTFFLEIIQRIGCMEKDEKGQEYQKGGCGGFGKGNFGQLFKSIEDYEKSLEAKQAAAAATAQGS | 0.252 | 5.03 | 0.252 | 5.03 | 0.713 | 0.333 s⁻¹ | 0.333 s⁻¹ | 0.353
